Patent US12072338B2, “Pharmaceutical peptides for the treatment of inflammatory diseases” (PROTAGONISTS LTD., priority 2007, dated 2024)
Where two headings read alike, the source gives them in different places.

Legend:
MCP-1 = target: T1, MCP-1 (Homo sapiens, UniProt P13500); test: Micro-array analysis of chemokine binding peptides: MCP-1; settings: for binding to MCP-1 with relatively high affinity (Relative Fluorescence Units): limit = start of the upper 75% of that peptide's response range
T1 construct: purchased 300-04
Outline: (§1)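 Phage-presented peptides (10^7 pfu/μl in wash buffer) were incubated 1 h at room temperature on blocked slides carrying chemokine spots at 25 or 50 μg/ml. After anti-M13 and Cy3-labelled secondary antibody staining, slides were laser-scanned and spot fluorescence quantified as relative binding.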

Eotaxin 2 = target: T2, Eotaxin 2 (Homo sapiens, UniProt O00175); test: Micro-array analysis of chemokine binding peptides: Eotaxin 2
T2 construct: purchased 300-33
T2 sequence (O00175 27-119): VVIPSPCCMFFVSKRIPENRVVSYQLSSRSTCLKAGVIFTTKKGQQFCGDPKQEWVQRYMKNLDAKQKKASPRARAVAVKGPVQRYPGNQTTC
Experimental: (§2) (1) Printing: Chemokine (CK) solution (in water) was serially diluted with Print Reagent (GenTel BioSurfaces USA) to final concentrations of 50 μg and 25 μg/ml. BSA/BSA-Biotin control solutions (in water) were diluted with Print Reagent to 100 μg/ml. Amplified stock of M13 phage control (M13KEgIII Cloning Vector, New England Biolabs, Cat.No.E8101S) was stored in Tris Buffered Saline (TBS; pH7.5, 4° C.) and diluted with Print Reagent to the working titre (10^8 pfu/μl). An automated spotting robot (16 pin print tool, 0.4 mm head; BioRobotics, UK) was used to print the CK/BSA control/M13 control, 5 repeats per sample (CK 25 μg/ml and 50 μg/ml; BSA 100 μg/ml; M13 20 μl), on PATH Protein Microarray Slides (GenTel, Prod.No. 2-1005/-1025) at […], and 50-70% relative humidity. Printed micro-array slides were stored at Room Temperature (RT) or 4° C. for at least 24 h before use.
(§3) (2) Blocking: Block Buffer (500 μl/partition; PATHblock, GenTel, Prod.No. 2-1014) was applied to the slide for 1 hour at room temp (RT). After removal of Block Buffer, the slide was air dried for 25 minutes;
(§4) (3) Phage Presented Peptide Binding: Amplified recombinant phage stock was stored in TBS and diluted with Wash Buffer to working titer (10^7 pfu/μl). Recombinant phage suspension (300 μl) was applied per partition and incubated at RT for 1 hour with gentle agitation.
(§5) (4) First Washing: The slides were washed twice with Wash Buffer 300 μl/partition).
(5) Primary Antibody (Ab) Labeling: The slides were incubated with the Primary Ab (1 mg/ml diluted ×2500 (Wash Reagent), 300 μl; Mouse Anti-M13 monoclonal Ab; Amersham Biosciences, UK; Product Code 27-9420-01) for 45 minutes at RT.
(6) Second Washing: The slides were washed twice with Wash Buffer (300 μl/partition).
(7) Secondary Ab Labeling: The slides were incubated with Secondary Ab (1.5 mg/ml diluted ×5000 (Wash Reagent), 300 μl; Cy3-conjugated AffiniPure Goat Anti-Mouse IgG; Jackson ImmunoReserch Labs, USA; Product Code 115-165-062).
(8) Third Washing: The slides were washed twice with Wash Buffer (300 μl/partition).
(9) Rinse: the slides were rinsed twice with Rinse Buffer (PATHrinse, GenTel, Prod.No. 2-1018) then dried well.
(10) Scanning: The peptide-bound, labeled slide was scanned (Laser Intensity 80%, Gain 80%, Resolution 10 μm) with a ScanArray Life Scanner (Packard BioChip Technologies, USA).
(§6) (11) Analysis: Quantitative analysis of micro-array was performed by the SpotReader program of Niles Scientific (USA) and presented as Relative Fluorescence (RF) as a function of CK concentration. Micro-array readout (Cy3 fluorescence) was quantified to determine the relative binding affinities of a CBP for the CKs and by inference, the specificity of the CBP for binding to a CK.

Exodus-2 = target: T3, Exodus-2 (Homo sapiens, UniProt O00585); test: Micro-array analysis of chemokine binding peptides: Exodus-2
T3 construct: purchased 300-35
T3 sequence (O00585 24-134): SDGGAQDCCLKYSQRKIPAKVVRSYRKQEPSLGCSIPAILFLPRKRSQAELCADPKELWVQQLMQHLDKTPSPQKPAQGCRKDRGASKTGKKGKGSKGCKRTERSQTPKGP
Outline: as §1

C-TAC = target: T4, C-TAC (Homo sapiens, UniProt Q9Y4X3); test: Micro-array analysis of chemokine binding peptides: C-TAC
T4 construct: purchased 300-54
T4 sequence (Q9Y4X3 25-112): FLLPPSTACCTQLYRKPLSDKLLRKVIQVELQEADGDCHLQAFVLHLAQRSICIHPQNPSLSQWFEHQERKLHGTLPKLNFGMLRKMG
Experimental: as §2, §3, §4, §5
(5) Primary Antibody (Ab) Labeling: The slides were incubated with the Primary Ab (1 mg/ml diluted ×2500 (Wash Reagent), 300 μl; Mouse Anti-M13 monoclonal Ab; Amersham Biosciences, UK; Product Code 27-9420-01) for 45 minutes at RT. […]
as §6

IP-10 = target: T5, IP-10 (Homo sapiens, UniProt P02778); test: Micro-array analysis of chemokine binding peptides: IP-10
T5 construct: purchased 300-12
T5 sequence (P02778 22-98): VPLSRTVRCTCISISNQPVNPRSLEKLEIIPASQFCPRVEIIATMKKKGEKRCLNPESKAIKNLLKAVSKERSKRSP
Outline: as §1

MIP3-α = target: T6, MIP3-α (Homo sapiens, UniProt P78556); test: Micro-array analysis of chemokine binding peptides: MIP3-α
T6 construct: purchased 300-29A
Experimental: as §2, with “use. […]” for “use.”
as §6

T1 sequence (P13500 24-99): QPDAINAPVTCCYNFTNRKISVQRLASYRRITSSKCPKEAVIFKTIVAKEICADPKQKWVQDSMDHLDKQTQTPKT
T6 sequence (P78556 27-96): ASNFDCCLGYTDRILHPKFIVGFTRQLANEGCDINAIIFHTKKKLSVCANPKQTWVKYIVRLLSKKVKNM

binding to MCP-1 with relatively high affinity (Relative Fluorescence Units) (MCP-1) | binding to Eotaxin 2 with relatively high affinity (Relative Fluorescence Units) (Eotaxin 2; limit = start of the upper 75% of that peptide's response range) | binding to Exodus-2, stated in words (Exodus-2) | binding to C-TAC, stated in words (C-TAC) | binding to IP-10, stated in words (IP-10) | binding to IP-10, stated in words (IP-10; listed as P8.8) | binding to MCP-1, stated in words (MCP-1) | binding to Eotaxin 2, stated in words (Eotaxin 2) | binding to MIP3-α, stated in words (MIP3-α) | Sequence
> 15,000 RFU | > 15,000 RFU | bound | bound | – | – | – | – | – | DYDYGAPC [Ph-p30]
> 15,000 RFU | – | bound | bound | bound | bound specifically and differentially | bound specifically and differentially | bound | bound | WVFGAAMCK [Ph-p8.8]
